Assay results: the Human Domainome abundance scans (Beltran et al. 2025)
± gives the uncertainty stated by the source.

B1: Intersectin-1, residues 909 to 971; numbered along this chain, Q15811 (parent)
chain: QGEKVEGLQAQALYPWRAKKDNHLNFNKNDVITVLEQQDMWWFGEVQGQKGWFPKSYVKLISG

Variants of: B1
Assay: abundance fitness (aPCA) (normalised: wild type 0, dead -1); higher = more abundant; growth selection in yeast, the domain comes from the species named
Settings: Homo sapiens

| Variant | abundance fitness |
| --- | --- |
| QGEKVEGHQAQALYPWRAKKDNHLNFNKNDVITVLEQQDMWWFGEVQGQKGWFPKSYVKLISG [L8H] | -0.361 ± 0.3 |
| QGEKVEGGQAQALYPWRAKKDNHLNFNKNDVITVLEQQDMWWFGEVQGQKGWFPKSYVKLISG [L8G] | -0.048 ± 0.066 |
| QGEKVEGLQAQALYPWRAKKDNHLNFNKNDVITVLEQQDMWWFGEVQGQKRWFPKSYVKLISG [G51R] | -0.89 ± 0.26 |
| QGEKVEGLQAQALYPWRAKKDNHLNFNKADVITVLEQQDMWWFGEVQGQKGWFPKSYVKLISG [N29A] | -0.113 ± 0.11 |
| QGEKVEGLQAQALYPWRAKKDNHLNFNKNDVITVLCQQDMWWFGEVQGQKGWFPKSYVKLISG [E36C] | -0.015 ± 0.37 |
| QGEKVEGLQAQALYPWRAKKDNHLNFNKNDVITRLEQQDMWWFGEVQGQKGWFPKSYVKLISG [V34R] | -0.776 ± 0.12 |
| QGEKVEGLQAQALYPWRAKKDNHLNFNKNDVITPLEQQDMWWFGEVQGQKGWFPKSYVKLISG [V34P] | -0.646 ± 0.19 |
| QGEKVEGLQAQALYPWRAKKDNHLNFNKNDVITVLEQQDMWWFGEVQHQKGWFPKSYVKLISG [G48H] | -0.381 ± 0.49 |
| QGEKVEGLQAQALYPWRAKKDNHLNFNKNDVITVLEQQDMWWFGEVQLQKGWFPKSYVKLISG [G48L] | -0.259 ± 0.1 |
| QGEKVEGLQAQALYPWRAKKHNHLNFNKNDVITVLEQQDMWWFGEVQGQKGWFPKSYVKLISG [D21H] | 0.01 ± 0.079 |
| QGEKVEGLQAQALYPWRAKKPNHLNFNKNDVITVLEQQDMWWFGEVQGQKGWFPKSYVKLISG [D21P] | -0.005 ± 0.057 |
| QGEKVEGLQMQALYPWRAKKDNHLNFNKNDVITVLEQQDMWWFGEVQGQKGWFPKSYVKLISG [A10M] | -0.223 ± 0.15 |
| QGEKVEGLQAQALYPWRAKKDNHLNFNKNDVITVLEQQDMWAFGEVQGQKGWFPKSYVKLISG [W42A] | -0.244 ± 0.073 |
| QGEKVEGLQAQALYPWRAKKDNHLNFNKNDVITVLEQQDMWWFGEVQGEKGWFPKSYVKLISG [Q49E] | 0.222 ± 0.29 |
| QGEKVEGLQAQALYPWRAKKDRHLNFNKNDVITVLEQQDMWWFGEVQGQKGWFPKSYVKLISG [N22R] | -0.142 ± 0.079 |
| QGEKVEGLQAQALYPWRAKKDSHLNFNKNDVITVLEQQDMWWFGEVQGQKGWFPKSYVKLISG [N22S] | 0.036 ± 0.11 |
| QGEKVEGLQAQALHPWRAKKDNHLNFNKNDVITVLEQQDMWWFGEVQGQKGWFPKSYVKLISG [Y14H] | -0.103 ± 0.23 |
| QGEKVEGLQAQALTPWRAKKDNHLNFNKNDVITVLEQQDMWWFGEVQGQKGWFPKSYVKLISG [Y14T] | -0.191 ± 0.14 |
| QGEKVEGLQAQALYPWDAKKDNHLNFNKNDVITVLEQQDMWWFGEVQGQKGWFPKSYVKLISG [R17D] | -0.163 ± 0.23 |
| QGEKVEGLQAQALYPWRAKKDNHLNFNKNDVITVLEQQDMWWFGEVQGQKGFFPKSYVKLISG [W52F] | -0.232 ± 0.4 |
| QGEKVEGLQAQALYPWRAKKDNHLNFNKNDVITVLEQQDMWWFGEVQGQKGGFPKSYVKLISG [W52G] | -1.18 ± 0.39 |
| QGEKVEGLQAQALYPWRAKKDNHLNFNKNDVITVSEQQDMWWFGEVQGQKGWFPKSYVKLISG [L35S] | -0.114 ± 0.19 |

| Variant | abundance fitness |
| --- | --- |
| QGEKVEGLQAQALYPWRAKKDNHLNFNKNDVITVEEQQDMWWFGEVQGQKGWFPKSYVKLISG [L35E] | -0.243 ± 0.29 |
| QGEKVEGLQAQALYPWRAKKDNHLNFNKNDVITVMEQQDMWWFGEVQGQKGWFPKSYVKLISG [L35M] | -0.019 ± 0.34 |
| QGEKVEGLQAQALYPWRAKKDNHLNFNKNDVITVREQQDMWWFGEVQGQKGWFPKSYVKLISG [L35R] | -0.173 ± 0.14 |
| QGEKVEGLQAQALYPWRAKKDNHLNFNKNDVITVCEQQDMWWFGEVQGQKGWFPKSYVKLISG [L35C] | 0.145 ± 0.36 |
| QGEKVEGLQAQKLYPWRAKKDNHLNFNKNDVITVLEQQDMWWFGEVQGQKGWFPKSYVKLISG [A12K] | -0.773 ± 0.48 |
| QGEKVEGLQAQALYPWRAKKDNHKNFNKNDVITVLEQQDMWWFGEVQGQKGWFPKSYVKLISG [L24K] | -1.14 ± 0.33 |
| QGEKVEGLQAQALYPWRAKKDNHENFNKNDVITVLEQQDMWWFGEVQGQKGWFPKSYVKLISG [L24E] | -0.591 ± 0.11 |
| QGEKVESLQAQALYPWRAKKDNHLNFNKNDVITVLEQQDMWWFGEVQGQKGWFPKSYVKLISG [G7S] | 0.006 ± 0.12 |
| QGEKVEQLQAQALYPWRAKKDNHLNFNKNDVITVLEQQDMWWFGEVQGQKGWFPKSYVKLISG [G7Q] | 0.164 ± 0.41 |
| QGEKVEGLQAQATYPWRAKKDNHLNFNKNDVITVLEQQDMWWFGEVQGQKGWFPKSYVKLISG [L13T] | -0.233 ± 0.18 |
| QGEKVEGLQAQALYPWRAKKDNHLNFNKNDVITVLEQQDMWWFCEVQGQKGWFPKSYVKLISG [G44C] | -0.79 ± 0.46 |
| QGEKVEGLQAQALYPWRAKKDNHLNFNKNDVITVLEQQDMWWFPEVQGQKGWFPKSYVKLISG [G44P] | -1.11 ± 0.41 |
| QGEKVEGLQAQALYPWRAKKDNHLNFNKNDVHTVLEQQDMWWFGEVQGQKGWFPKSYVKLISG [I32H] | -0.692 ± 0.14 |
| QGERVEGLQAQALYPWRAKKDNHLNFNKNDVITVLEQQDMWWFGEVQGQKGWFPKSYVKLISG [K4R] | -0.126 ± 0.1 |
| QGEGVEGLQAQALYPWRAKKDNHLNFNKNDVITVLEQQDMWWFGEVQGQKGWFPKSYVKLISG [K4G] | -0.588 ± 0.15 |
| QGEKVEGLQAQALYPWRAKKDNHLNFHKNDVITVLEQQDMWWFGEVQGQKGWFPKSYVKLISG [N27H] | -0.708 ± 0.49 |
| QGEKVEGLQAQALYPWRAKKDNHLNFNKNDVITVLEQQDMWWFGEVQGQKGWFPGSYVKLISG [K55G] | -0.165 ± 0.24 |
| QGEKVEGLQAQALYPWRAKKDNHLNFNKNDVITVLEQQTMWWFGEVQGQKGWFPKSYVKLISG [D39T] | -0.009 ± 0.2 |
| QGEKVEGLQAQALYPWRAKKDNHLNFNKNDVITVLEQQDMWWRGEVQGQKGWFPKSYVKLISG [F43R] | -0.328 ± 0.086 |
| QGEKVEGLQAQALYPWRAKKDNHLNFNKNDVITVLEQQDMWWNGEVQGQKGWFPKSYVKLISG [F43N] | -0.427 ± 0.25 |
| QGEKVEGLQAQALYPWRAKKDNHLNFNKNDVITVLEQQDMWWFGEVQGQFGWFPKSYVKLISG [K50F] | -0.208 ± 0.23 |
